According to patent publication US9958461B2, “Detection of protein to protein interactions” (THE GOVERNING COUNCIL OF THE UNIVERSITY OF TORONTO, priority 2013, dated 2018):

How the values were obtained:
[1] = molecular target: T1, EGFR-L858R (Homo sapiens, UniProt P00533, L858R); assay: MaMTH EGFR-interactor screen, lentiviral preys against EGFR-L858R bait (interaction score); format: cell-based; conditions: MaMTH interaction score of prey with EGFR-L858R bait
T1 construct: with the advantage of testing full-length integral membrane proteins; (GGGGS)2 linker-Cub (human ubiquitin aa 35-76)-GAL4(1-147)-mNFkB(364-550) (C); expressed in transfected cells
Procedure, shortened: (§1)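 Interaction score is the luciferase fold-change versus averaged negative controls (Fabp5, Pex19, Pex7, GABBR2), with >1 called interacting. Luciferase was measured 24 h after triplicate bait transfection. This followed single-copy prey transduction (MOI ~0.3-0.4) of GAL4UAS-luciferase HEK293T cells and ≥48 h puromycin selection.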

[2] = molecular target: T2, EGFR-Wt (Homo sapiens, UniProt P00533); assay: MaMTH EGFR-interactor screen, lentiviral preys against EGFR-wildtype bait (interaction score); format: cell-based; conditions: MaMTH interaction score of prey with EGFR-Wt bait, mean
T2 construct: with the advantage of testing full-length integral membrane proteins; (GGGGS)2 linker-Cub (human ubiquitin aa 35-76)-GAL4(1-147)-mNFkB(364-550) (C); expressed in transfected cells
Procedure, shortened: as §1

[3] = system: EGFR-Wt; assay: as above; format: cell-based, human; conditions: ratio of EGFR-Wt mean to EGFR-L858R mean interaction score
Procedure, shortened: as §1

| Molecule | EGFR-L858R mean [1] | EGFR-Wt mean [2] | Wt/L858R [3] |
| --- | --- | --- | --- |
| PTPN22 (protein, UniProt Q9Y2R2 1-807, looked up) Tyrosine-protein phosphatase …: MDQREILQKFLDEAQSKKITKEEFANEFLKLKRQSTKYKADKTYPTTVAEKPKNIKKNRYKDILPYDYSRVELSLITSDEDSSYINANFIKGVYGPKAYIATQGPLSTTLLDFWRMIWEYSVLIIVMACMEYEMGKKKCERYWAEPGEMQLEFGPFSVSCEAEKRKSDYIIRTLKVKFNSETRTIYQFHYKNWPDHDVPSSIDPILELIWDVRCYQEDDSVPICIHCSAGCGRTGVICAIDYTWMLLKDGIIPENFSVFSLIREMRTQRPSLVQTQEQYELVYNAVLELFKRQMDVIRDKHSGTESQAKHCIPEKNHTLQADSYSPNLPKSTTKAAKMMNQQRTKMEIKESSSFDFRTSEISAKEELVLHPAKSSTSFDFLELNYSFDKNADTTMKWQTKAFPIVGEPLQKHQSLDLGSLLFEGCSNSKPVNAAGRYFNSKVPITRTKSTPFELIQQRETKEVDSKENFSYLESQPHDSCFVEMQAQKVMHVSSAELNYSLPYDSKHQIRNASNVKHHDSSALGVYSYIPLVENPYFSSWPPSGTSSKMSLDLPEKQDGTVFPSSLLPTSSTSLFSYYNSHDSLSLNSPTNISSLLNQESAVLATAPRIDDEIPPPLPVRTPESFIVVEEAGEFSPNVPKSLSSAVKVKIGTSLEWGGTSEPKKFDDSVILRPSKSVKLRSPKSELHQDRSSPPPPLPERTLESFFLADEDCMQAQSIETYSTSYPDTMENSTSSKQTLKTPGKSFTRSKSLKILRNMKKSICNSCPPNKPAESVQSNNSSSFLNFGFANRFSKPKGPRNPPPTWNI | 0.36 | 2.99 | 8.23 |
| PRKCZ (protein, UniProt Q05513 1-592, looked up) Protein kinase C zeta type: MPSRTGPKMEGSGGRVRLKAHYGGDIFITSVDAATTFEELCEEVRDMCRLHQQHPLTLKWVDSEGDPCTVSSQMELEEAFRLARQCRDEGLIIHVFPSTPEQPGLPCPGEDKSIYRRGARRWRKLYRANGHLFQAKRFNRRAYCGQCSERIWGLARQGYRCINCKLLVHKRCHGLVPLTCRKHMDSVMPSQEPPVDDKNEDADLPSEETDGIAYISSSRKHDSIKDDSEDLKPVIDGMDGIKISQGLGLQDFDLIRVIGRGSYAKVLLVRLKKNDQIYAMKVVKKELVHDDEDIDWVQTEKHVFEQASSNPFLVGLHSCFQTTSRLFLVIEYVNGGDLMFHMQRQRKLPEEHARFYAAEICIALNFLHERGIIYRDLKLDNVLLDADGHIKLTDYGMCKEGLGPGDTTSTFCGTPNYIAPEILRGEEYGFSVDWWALGVLMFEMMAGRSPFDIITDNPDMNTEDYLFQVILEKPIRIPRFLSVKASHVLKGFLNKDPKERLGCRPQTGFSDIKSHAFFRSIDWDLLEKKQALPPFQPQITDDYGLDNFDTQFTSEPVQLTPDDEDAIKRIDQSEFEGFEYINPLLLSTEESV | 0.89 | 2.49 | 2.79 |
| CAV2 (protein, UniProt P51636 1-162, looked up) Caveolin-2: MGLETEKADVQLFMDDDSYSHHSGLEYADPEKFADSDQDRDPHRLNSHLKLGFEDVIAEPVTTHSFDKVWICSHALFEISKYVMYKFLTVFLAIPLAFIAGILFATLSCLHIWILMPFVKTCLMVLPSVQTIWKSVTDVIIAPLCTSVGRCFSSVSLQLSQD | 6.58 | 2.57 | 0.39 |
| SLA (protein, UniProt Q13239 2-276, looked up) Src-like-adapter: GNSMKSTPAPAERPLPNPEGLDSDFLAVLSDYPSPDISPPIFRRGEKLRVISDEGGWWKAISLSTGRESYIPGICVARVYHGWLFEGLGRDKAEELLQLPDTKVGSFMIRESETKKGFYSLSVRHRQVKHYRIFRLPNNWYYISPRLTFQCLEDLVNHYSEVADGLCCVLTTPCLTQSTAAPAVRASSSPVTLRQKTVDWRRVSRLQEDPEGTENPLGVDESLFSYGLRESIASYLSLTSEDNTSFDRKKKSISLMYGGSKRKSSFFSSPPYFED | 1.16 | 2.78 | 2.40 |
| GAB1 (protein, UniProt Q13480 2-694, looked up) GRB2-associated-binding …: SGGEVVCSGWLRKSPPEKKLKRYAWKRRWFVLRSGRLTGDPDVLEYYKNDHAKKPIRIIDLNLCQQVDAGLTFNKKEFENSYIFDINTIDRIFYLVADSEEEMNKWVRCICDICGFNPTEEDPVKPPGSSLQAPADLPLAINTAPPSTQADSSSATLPPPYQLINVPPHLETLGIQEDPQDYLLLINCQSKKPEPTRTHADSAKSTSSETDCNDNVPSHKNPASSQSKHGMNGFFQQQMIYDSPPSRAPSASVDSSLYNLPRSYSHDVLPKVSPSSTEADGELYVFNTPSGTSSVETQMRHVSISYDIPPTPGNTYQIPRTFPEGTLGQTSKLDTIPDIPPPRPPKPHPAHDRSPVETCSIPRTASDTDSSYCIPTAGMSPSRSNTISTVDLNKLRKDASSQDCYDIPRAFPSDRSSSLEGFHNHFKVKNVLTVGSVSSEELDENYVPMNPNSPPRQHSSSFTEPIQEANYVPMTPGTFDFSSFGMQVPPPAHMGFRSSPKTPPRRPVPVADCEPPPVDRNLKPDRKVKPAPLEIKPLPEWEELQAPVRSPITRSFARDSSRFPMSPRPDSVHSTTSSSDSHDSEENYVPMNPNLSSEDPNLFGSNSLDGGSSPMIKPKGDKQVEYLDLDLDSGKSTPPRKQKSSGSGSSVADERVDYVVVDQQKTLALKSTREAWTDGRQSTESETPAKSVK | 2.30 | 0.93 | 0.41 |
| JUP (protein, UniProt P14923 1-745, looked up) Junction plakoglobin: MEVMNLMEQPIKVTEWQQTYTYDSGIHSGANTCVPSVSSKGIMEEDEACGRQYTLKKTTTYTQGVPPSQGDLEYQMSTTARAKRVREAMCPGVSGEDSSLLLATQVEGQATNLQRLAEPSQLLKSAIVHLINYQDDAELATRALPELTKLLNDEDPVVVTKAAMIVNQLSKKEASRRALMGSPQLVAAVVRTMQNTSDLDTARCTTSILHNLSHHREGLLAIFKSGGIPALVRMLSSPVESVLFYAITTLHNLLLYQEGAKMAVRLADGLQKMVPLLNKNNPKFLAITTDCLQLLAYGNQESKLIILANGGPQALVQIMRNYSYEKLLWTTSRVLKVLSVCPSNKPAIVEAGGMQALGKHLTSNSPRLVQNCLWTLRNLSDVATKQEGLESVLKILVNQLSVDDVNVLTCATGTLSNLTCNNSKNKTLVTQNSGVEALIHAILRAGDKDDITEPAVCALRHLTSRHPEAEMAQNSVRLNYGIPAIVKLLNQPNQWPLVKATIGLIRNLALCPANHAPLQEAAVIPRLVQLLVKAHQDAQRHVAAGTQQPYTDGVRMEEIVEGCTGALHILARDPMNRMEIFRLNTIPLFVQLLYSSVENIQRVAAGVLCELAQDKEAADAIDAEGASAPLMELLHSRNEGTATYAAAVLFRISEDKNPDYRKRVSVELTNSLFKHDPAAWEAAQSMIPINEPYGDDMDATYRPMYSSDVPLDPLEMHMDMDGDYPIDTYSDGLRPPYPTADHMLA | 2.51 | 0.98 | 0.39 |
| DOK1 (protein, UniProt Q99704 1-481, looked up) Docking protein 1: MDGAVMEGPLFLQSQRFGTKRWRKTWAVLYPASPHGVARLEFFDHKGSSSGGGRGSSRRLDCKVIRLAECVSVAPVTVETPPEPGATAFRLDTAQRSHLLAADAPSSAAWVQTLCRNAFPKGSWTLAPTDNPPKLSALEMLENSLYSPTWEGSQFWVTVQRTEAAERCGLHGSYVLRVEAERLTLLTVGAQSQILEPLLSWPYTLLRRYGRDKVMFSFEAGRRCPSGPGTFTFQTAQGNDIFQAVETAIHRQKAQGKAGQGHDVLRADSHEGEVAEGKLPSPPGPQELLDSPPALYAEPLDSLRIAPCPSQDSLYSDPLDSTSAQAGEGVQRKKPLYWDLYEHAQQQLLKAKLTDPKEDPIYDEPEGLAPVPPQGLYDLPREPKDAWWCQARVKEEGYELPYNPATDDYAVPPPRSTKPLLAPKPQGPAFPEPGTATGSGIKSHNSALYSQVQKSGASGSWDCGLSRVGTDKTGVKSEGST | 13.10 | 5.17 | 0.39 |
